Laboratory results as given in PMC11409674, “Raffinocyclicin is a novel plasmid-encoded circular bacteriocin produced by Lactococcus raffinolactis with broad-spectrum activity against many gram-positive food pathogens” (Applied and environmental microbiology, 2024).

What was measured:
proteases = system: proteases; design: method as in 4 sources, ref 33 = [33]; PMID 21948835; doi:10.1128/AEM.06348-11; 33 Masuda Y Ono H Kitagawa H Ito H Mu F Sawa N Zendo T Sonomoto K Identification and characterization of leucocyclicin Q, a novel cyclic bacteriocin produced by Leuconostoc mesenteroides TK41401 Appl ||| ref 27 = [27]; PMID 21057028; doi:10.1128/AEM.01173-10; 27 Borrero J Brede DA Skaugen M Diep DB Herranz C Nes IF Cintas LM Hernández PE Characterization of garvicin ML, a novel circular bacteriocin produced by Lactococcus garvieae DCC43, isolated from mall ||| ref 30 = [30]; PMID 29177092; doi:10.1099/mgen.0.000134; 30 van Heel AJ Montalban-Lopez M Oliveau Q Kuipers OP Genome-guided identification of novel head-to-tail cyclized antimicrobial peptides, exemplified by the discovery of pumilarin Microb Genom 2017 3 ||| ref 29 = [29]; PMID 18552180; doi:10.1128/AEM.00817-08; 29 Martin-Visscher LA van Belkum MJ Garneau-Tsodikova S Whittal RM Zheng J McMullen LM Vederas JC Isolation and characterization of carnocyclin A, a novel circular bacteriocin produced by Carnobacteri; settings: cited from earlier work
proteinase K = biological target: T1, proteinase K (Parengyodontium album, UniProt P06873); assay: residual antimicrobial activity after proteinase K treatment; format: in vitro ADME; settings: proteinase K 1 mg/mL, 37 °C, 4 h
T1 construct: purchased Sigma-Aldrich, St Louis, USA
T1 sequence (P06873 106-384): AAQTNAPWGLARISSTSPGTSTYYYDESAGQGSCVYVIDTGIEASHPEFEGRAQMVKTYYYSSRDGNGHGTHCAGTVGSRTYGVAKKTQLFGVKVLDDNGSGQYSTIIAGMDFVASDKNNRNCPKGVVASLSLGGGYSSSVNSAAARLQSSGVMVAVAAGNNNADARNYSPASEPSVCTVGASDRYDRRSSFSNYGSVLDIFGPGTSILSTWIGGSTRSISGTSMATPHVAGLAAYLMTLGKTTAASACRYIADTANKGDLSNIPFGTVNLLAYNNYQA

Substance | antimicrobial activity after protease treatment (proteases) | loss of activity when treated with proteinase K (proteinase K; indicator L. lactis HP) | Phenotype (proteinase K; 40 µL spotted around chloroform-inactivated producer spot, overlay L. lactis HP, 30 °C, 24 h) | Residual activity (proteinase K; 40 µL spotted around chloroform-inactivated producer spot, overlay L. lactis HP, 30 °C, 24 h, true halo treated/control (10 mM PBS pH 7.4) × 100) [%]
carnocyclin A (LVAYGIAQGTAEKVVSLINAGLTVGSIISILGGVTVGLSGVFTAVKAAIAKQGIKKAIQL; UniProt B2MVM5 5-64, looked up) [circular bacteriocin] | completely abolished | – | – | –
raffinocyclicin | – | over 90% | S | 7
